Laboratory results taken from patent US20230038638A1, “COMPLEMENT FACTOR I-RELATED COMPOSITIONS AND METHODS” (published 2023).
Where a chain is given by its changes, count along the chain named.

How the values were obtained:
human C4b (human) [1] = target: T1, human C4b (human) (UniProt P0C0L5)
T1 sequence: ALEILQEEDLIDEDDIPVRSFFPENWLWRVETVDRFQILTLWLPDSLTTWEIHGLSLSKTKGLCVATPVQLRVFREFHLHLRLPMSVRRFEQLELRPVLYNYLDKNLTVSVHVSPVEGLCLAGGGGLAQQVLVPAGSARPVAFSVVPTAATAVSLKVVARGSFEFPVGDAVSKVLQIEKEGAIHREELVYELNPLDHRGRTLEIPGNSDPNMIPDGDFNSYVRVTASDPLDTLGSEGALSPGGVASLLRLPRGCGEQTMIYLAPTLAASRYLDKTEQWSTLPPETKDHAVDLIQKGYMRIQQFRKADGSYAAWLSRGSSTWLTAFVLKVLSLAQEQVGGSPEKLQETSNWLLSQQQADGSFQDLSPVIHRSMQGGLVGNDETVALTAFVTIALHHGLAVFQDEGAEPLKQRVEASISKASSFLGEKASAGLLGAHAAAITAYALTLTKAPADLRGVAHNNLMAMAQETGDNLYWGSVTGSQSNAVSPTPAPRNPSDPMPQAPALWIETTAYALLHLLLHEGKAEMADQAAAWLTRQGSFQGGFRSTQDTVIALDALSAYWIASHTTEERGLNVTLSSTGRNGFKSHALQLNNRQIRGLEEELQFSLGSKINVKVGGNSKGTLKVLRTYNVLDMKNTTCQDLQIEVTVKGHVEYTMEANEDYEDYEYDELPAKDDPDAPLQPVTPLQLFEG

[2] = target: soluble human C3b (human) (UniProt P01024)
human C4b (human) [3] = target: T2, human C4b (human) (UniProt P0C0L4)
T2 sequence: T1 sequence with T151A, G317D, L364P, S365C, I368L, H369D, S420N, A451V, R454L, A530S

[4] = target: soluble human C3b (human) (UniProt P01024); remark: listed apart in the source

C4b Screen Ref Fold (fold of CFI-HSA wild type) (human C4b (human) [1]) | iC3b Screen Ref Fold (fold of CFI-HSA wild type) [2] | C4c EC50 (nM) (human C4b (human) [3]) | iC3b EC50 [4] | C4c EC50 (human C4b (human) [3]) | C4b Screen Ref Fold (fold vs CFI-HSA wild type) (human C4b (human) [1]) | iC3b Screen Ref Fold (fold vs CFI-HSA wild type) [2] | Substance
4.82 | 1.11 | 11.9 nM | 6.9 nM |  |  |  | CFI-HSA variant N531G; E416A (enzyme)
0.41 | 1.21 |  | 20.8 nM | > 1000 nM |  |  | CFI-HSA variant Y408L; E416A (enzyme)
1.93 | 0.68 |  | 13.8 nM | 158 nM |  |  | CFI-HSA variant E457G; P535G (enzyme)
5.43 | 0.99 |  | 4.4 nM | 12.7 nM |  |  | CFI-HSA variant E457G; N531G; D425K (enzyme)
 |  | 246 nM | 18.7 nM |  | 3.04 | 0.95 | CFI-HSA variant Q467K (enzyme)
 |  | 225 nM | 19.2 nM |  | 1.88 | 0.61 | CFI-HSA variant Y408F (enzyme)
4.37 | 1.46 |  | 4.7 nM | 7 nM |  |  | CFI-HSA variant E457G; N531G; N422K (enzyme)
 |  | > 1000 nM | 51.9 nM |  | 0.23 | 0.41 | CFI-HSA variant K504A (enzyme)
4.68 | 2.43 |  | 5.2 nM | 42.6 nM |  |  | CFI-HSA variant N531G; N422K (enzyme)
 |  | 510 nM | 20.2 nM |  | 1.11 | 1 | CFI-HSA variant N518Q (enzyme)
4.7 | 1.19 |  | 5.2 nM | 51.9 nM |  |  | CFI-HSA variant N531G; D425K (enzyme)
4.15 | 1.02 |  | 6 nM | 90 nM |  |  | CFI-HSA variant E457G; P535G; D425K (enzyme)
 |  | 425 nM | 12.8 nM |  | 1.15 | 1.08 | CFI-HSA variant E416A (enzyme)
 |  | 113 nM | 16.9 nM |  | 4.68 | 1.43 | CFI-HSA variant E457A (enzyme)
 |  | 615 nM | 12.7 nM |  | 0.85 | 1.31 | CFI-HSA variant Q467K; F537K (enzyme)
 |  | 70.5 nM | 10.6 nM |  | 5.29 | 1.09 | CFI-HSA variant Y408L-N531G (enzyme)
 |  |  | 21.6 nM | 42.3 nM |  |  | CFI-HSA variant E457G; WT; GGSSGG (SEQ ID NO: 6); CR1(ccp15-17) (enzyme)
 |  |  | 28.1 nM | 29.1 nM |  |  | CFI-HSA variant E457G; N531G; WT; GGSSGG (SEQ ID NO: 6); CR1(ccp15-17) (enzyme)
 |  | 27.4 nM | 24.2 nM |  |  |  | CFI-HSA variant Y408L; E457G; E461Q; R462K; N531G; R557A (enzyme)
 |  |  | 10.7 nM | 123 nM |  |  | CFI-HSA variant D425H (enzyme)
 |  | > 1000 nM | 41.7 nM |  |  |  | CFI-HSA variant D549P (enzyme)
 |  | 10.9 nM | 4.3 nM |  |  |  | CFI-HSA variant T377G; E457G; E461Q; N531G (enzyme)
 |  | 148 nM | > 500 nM |  |  |  | CFI-HSA variant R557D (enzyme)
 |  | 98.8 nM | 198 nM |  |  |  | CFI-HSA variant R557H (enzyme)
 |  | 52.6 nM | 10.8 nM |  |  |  | CFI-HSA variant E457G; E461Q; R557K (enzyme)
 |  |  | 15.7 nM | 104 nM |  |  | CFI-HSA variant K534H (enzyme)
 |  |  | 18.4 nM | 54.1 nM |  |  | CFI-HSA variant L307S (enzyme)
 |  | 50.3 nM | 33 nM |  |  |  | CFI-HSA variant E457G; E461Q; N531G; GGSSGG (SEQ ID NO: 6); CR1 (ccp15-17) (from UniProt P17927) (enzyme)
